Consider one molecule from patent US20250025549A1 (NOVAVAX, published 2025).

The experiment has as its target T1, human angiotensin-converting enzyme 2 precursor (hACE2), His-tagged (human, UniProt Q9BYF1 18-740).
T1 construct: also called His-tagged human ACE2; histidine-tagged hACE2
Description: bio-layer interferometry.

T1 sequence (Q9BYF1 18-740 limits assumed): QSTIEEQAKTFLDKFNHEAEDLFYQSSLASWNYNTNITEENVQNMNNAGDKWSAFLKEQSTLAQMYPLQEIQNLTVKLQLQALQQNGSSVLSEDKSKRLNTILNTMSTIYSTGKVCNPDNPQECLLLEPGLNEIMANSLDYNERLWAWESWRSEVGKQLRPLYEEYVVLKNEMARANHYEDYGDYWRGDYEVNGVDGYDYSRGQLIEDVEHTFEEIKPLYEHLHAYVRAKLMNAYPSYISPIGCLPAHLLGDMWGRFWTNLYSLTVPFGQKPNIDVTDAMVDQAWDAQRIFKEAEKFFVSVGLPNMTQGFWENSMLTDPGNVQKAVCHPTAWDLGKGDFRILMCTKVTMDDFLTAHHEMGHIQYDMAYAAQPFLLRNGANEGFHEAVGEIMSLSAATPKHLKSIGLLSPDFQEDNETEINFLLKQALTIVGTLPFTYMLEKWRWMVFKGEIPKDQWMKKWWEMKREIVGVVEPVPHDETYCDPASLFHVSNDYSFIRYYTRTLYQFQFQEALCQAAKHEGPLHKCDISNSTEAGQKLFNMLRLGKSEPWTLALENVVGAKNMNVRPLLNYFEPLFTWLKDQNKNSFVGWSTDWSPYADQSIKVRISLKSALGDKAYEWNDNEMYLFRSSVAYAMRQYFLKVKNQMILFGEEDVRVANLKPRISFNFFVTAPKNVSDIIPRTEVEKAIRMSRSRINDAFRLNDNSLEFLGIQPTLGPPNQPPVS

B1: MERS S protein (other)
chain: YVDVGPDSVKSACIEVDIQQTFFDKTWPRPIDVSKADGIIYPQGRTYSNITITYQGLFPYQGDHGDMYVYSAGHATGTTPQKLFVANYSQDVKQFANGFVVRIGAAANSTGTVIISPSTSATIRKIYPAFMLGSSVGNFSDGKMGRFFNHTLVLLPDGCGTLLRAFYCILEPRSGNHCPAGNSYTSFATYHTPATDCSDGNYNRNASLNSFKEYFNLRNCTFMYTYNITEDEILEWFGITQTAQGVHLFSSRYVDLYGGNMFQFATLPVYDTIKYYSIIPHSIRSIQSDRKAWAAFYVYKLQPLTFLLDFSVDGYIRRAIDCGFNDLSQLHCSYESFDVESGVYSVSSFEAKPSGSVVEQAEGVECDFSPLLSGTPPQVYNFKRLVFTNCNYNLTKLLSLFSVNDFTCSQISPAAIASNCYSSLILDYFSYPLSMKSDLSVSSAGPISQFNYKQSFSNPTCLILATVPHNLTTITKPLKYSYINKCSRFLSDDRTEVPQLVNANQYSPCVSIVPSTVWEDGDYYRKQLSPLEGGGWLVASGSTVAMTEQLQMGFGITVQYGTDTNSVCPKLEFANDTKIASQLGNCVEYSLYGVSGRGVFQNCTAVGVRQQRFVYDAYQNLVGYYSDDGNYYCLRACVSVPVSVIYDKETKTHATLFGSVACEHISSTMSQYSRSTRSMLKRRDSTYGPLQTPVGCVLGLVNSSLFVEDCKLPLGQSLCALPDTPSTLTPRSVRSVPGEMRLASIAFNHPIQVDQLNSSYFKLSIPTNFSFGVTQEYIQTTIQKVTVDCKQYVCNGFQKCEQLLREYGQFCSKINQALHGANLRQDDSVRNLFASVKSSQSSPIIPGFGGDFNLTLLEPVSISTGSRSARSAIEDLLFDKVTIADPGYMQGYDDCMQQGPASARDLICAQYVAGYKVLPPLMDVNMEAAYTSSLLGSIAGVGWTAGLSSFAAIPFAQSIFYRLNGVGITQQVLSENQKLIANKFNQALGAMQTGFTTTNEAFHKVQDAVNNNAQALSKLASELSNTFGAISASIGDIIQRLDVLEQDAQIDRLINGRLTTLNAFVAQQLVRSESAALSAQLAKDKVNECVKAQSKRSGFCGQGTHIVSFVVNAPNGLYFMHVGYYPSNHIEVVSAYGLCDAANPTNCIAPVNGYFIKTNNTRIVDEWSYTGSSFYAPEPITSLNTKYVAPQVTYQNISTNLPPPLLGNSTGIDFQDELDEFFKNVSTSIPNFGSLTQINTTLLDLTYEMLSLQQVVKALNESYIDLKELGNYTYYNKWPWYIWLGFIAGLVALALCVFFILCCTGCGTNCMGKLKCNRCCDRYEEYDLEPHKVHVH
notes: also called MERS-CoV spike protein
As to B1, the binding result is listed as “no binding”.
